{"source": "the supplement of paper PMC9112550", "about": "“Optimization of the antimicrobial peptide Bac7 by deep mutational scanning” (BMC Biology, 2022);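 also: peptides expressed intracellularly from a pBAD plasmid library in pooled LB shake-flask culture, induced with 0.3% L-arabinose, DNA abundance read by NGS, three biological replicates, DESeq2 with apeglm shrinkage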", "system": "Escherichia coli TOP10", "experiment": "shrunken log2 fold change of peptide-encoding DNA abundance (4.5 h post-induction vs induction); higher = less antimicrobial activity (less host growth inhibition)", "conditions": "time post-induction: 4.5 h; library: site-saturation at positions 5, 18, 19, 20"}
{"sequence": "RRIRVRPPRLPRPRPRPRHQPRP", "values": [{"measurement": "shrunken log2 fold change", "value": -0.138}]}
{"sequence": "RRIRRRPPRLPRPRPRPECFPRP", "values": [{"measurement": "shrunken log2 fold change", "value": 0.3}]}
{"sequence": "RRIRFRPPRLPRPRPRPMMTPRP", "values": [{"measurement": "shrunken log2 fold change", "value": 0.022}]}
{"sequence": "RRIRSRPPRLPRPRPRPWMDPRP", "values": [{"measurement": "shrunken log2 fold change", "value": -0.0373}]}
{"sequence": "RRIRTRPPRLPRPRPRPMYMPRP", "values": [{"measurement": "shrunken log2 fold change", "value": -0.0921}]}
{"sequence": "RRIRVRPPRLPRPRPRPASFPRP", "values": [{"measurement": "shrunken log2 fold change", "value": 0.115}]}
{"sequence": "RRIRVRPPRLPRPRPRPWQQPRP", "values": [{"measurement": "shrunken log2 fold change", "value": -0.097}]}
{"sequence": "RRIRKRPPRLPRPRPRPQALPRP", "values": [{"measurement": "shrunken log2 fold change", "value": 0.228}]}
{"sequence": "RRIRYRPPRLPRPRPRPYINPRP", "values": [{"measurement": "shrunken log2 fold change", "value": -1.69}]}
{"sequence": "RRIRCRPPRLPRPRPRPGQPPRP", "values": [{"measurement": "shrunken log2 fold change", "value": 0.126}]}
{"sequence": "RRIRNRPPRLPRPRPRPSKGPRP", "values": [{"measurement": "shrunken log2 fold change", "value": -0.00183}]}
{"sequence": "RRIRHRPPRLPRPRPRPDCEPRP", "values": [{"measurement": "shrunken log2 fold change", "value": -0.0807}]}
{"sequence": "RRIRRRPPRLPRPRPRPCSTPRP", "values": [{"measurement": "shrunken log2 fold change", "value": 0.0875}]}
{"sequence": "RRIRARPPRLPRPRPRPFGKPRP", "values": [{"measurement": "shrunken log2 fold change", "value": 0.0252}]}
{"sequence": "RRIRTRPPRLPRPRPRPECRPRP", "values": [{"measurement": "shrunken log2 fold change", "value": 0.569}]}
{"sequence": "RRIRERPPRLPRPRPRPACQPRP", "values": [{"measurement": "shrunken log2 fold change", "value": 0.146}]}
{"sequence": "RRIRERPPRLPRPRPRPCEVPRP", "values": [{"measurement": "shrunken log2 fold change", "value": 0.028}]}
{"sequence": "RRIRIRPPRLPRPRPRPQDWPRP", "values": [{"measurement": "shrunken log2 fold change", "value": -0.344}]}
{"sequence": "RRIRDRPPRLPRPRPRPTMMPRP", "values": [{"measurement": "shrunken log2 fold change", "value": 0.338}]}
{"sequence": "RRIRSRPPRLPRPRPRPLVTPRP", "values": [{"measurement": "shrunken log2 fold change", "value": 0.0214}]}
{"sequence": "RRIRARPPRLPRPRPRPYIPPRP", "values": [{"measurement": "shrunken log2 fold change", "value": -0.805}]}
{"sequence": "RRIRYRPPRLPRPRPRPRHTPRP", "values": [{"measurement": "shrunken log2 fold change", "value": -0.108}]}
{"sequence": "RRIRWRPPRLPRPRPRPFVQPRP", "values": [{"measurement": "shrunken log2 fold change", "value": -0.184}]}
{"sequence": "RRIRHRPPRLPRPRPRPCLLPRP", "values": [{"measurement": "shrunken log2 fold change", "value": -0.342}]}
{"sequence": "RRIRRRPPRLPRPRPRPGIDPRP", "values": [{"measurement": "shrunken log2 fold change", "value": -0.0704}]}
{"sequence": "RRIRDRPPRLPRPRPRPGTIPRP", "values": [{"measurement": "shrunken log2 fold change", "value": -0.485}]}
{"sequence": "RRIRTRPPRLPRPRPRPQMTPRP", "values": [{"measurement": "shrunken log2 fold change", "value": 0.0824}]}
{"sequence": "RRIRERPPRLPRPRPRPEVLPRP", "values": [{"measurement": "shrunken log2 fold change", "value": 0.28}]}
{"sequence": "RRIRPRPPRLPRPRPRPGLLPRP", "values": [{"measurement": "shrunken log2 fold change", "value": 0.217}]}
{"sequence": "RRIRYRPPRLPRPRPRPCCSPRP", "values": [{"measurement": "shrunken log2 fold change", "value": -0.141}]}
{"sequence": "RRIRYRPPRLPRPRPRPGMRPRP", "values": [{"measurement": "shrunken log2 fold change", "value": 0.561}]}
{"sequence": "RRIRRRPPRLPRPRPRPSQTPRP", "values": [{"measurement": "shrunken log2 fold change", "value": 0.294}]}
{"sequence": "RRIRQRPPRLPRPRPRPNIRPRP", "values": [{"measurement": "shrunken log2 fold change", "value": 0.0516}]}
{"sequence": "RRIRKRPPRLPRPRPRPHMSPRP", "values": [{"measurement": "shrunken log2 fold change", "value": 0.0205}]}
{"sequence": "RRIRCRPPRLPRPRPRPYSIPRP", "values": [{"measurement": "shrunken log2 fold change", "value": -0.608}]}
{"sequence": "RRIRRRPPRLPRPRPRPTDDPRP", "values": [{"measurement": "shrunken log2 fold change", "value": 0.741}]}
{"sequence": "RRIRVRPPRLPRPRPRPIYAPRP", "values": [{"measurement": "shrunken log2 fold change", "value": -0.0133}]}
{"sequence": "RRIRWRPPRLPRPRPRPQMDPRP", "values": [{"measurement": "shrunken log2 fold change", "value": -0.12}]}
{"sequence": "RRIRFRPPRLPRPRPRPMSFPRP", "values": [{"measurement": "shrunken log2 fold change", "value": -0.193}]}
{"sequence": "RRIRIRPPRLPRPRPRPVYQPRP", "values": [{"measurement": "shrunken log2 fold change", "value": -0.649}]}
{"sequence": "RRIRERPPRLPRPRPRPGYQPRP", "values": [{"measurement": "shrunken log2 fold change", "value": -0.00905}]}
{"sequence": "RRIRGRPPRLPRPRPRPNCLPRP", "values": [{"measurement": "shrunken log2 fold change", "value": 0.191}]}
{"sequence": "RRIRLRPPRLPRPRPRPHYAPRP", "values": [{"measurement": "shrunken log2 fold change", "value": -0.133}]}
{"sequence": "RRIRLRPPRLPRPRPRPFVPPRP", "values": [{"measurement": "shrunken log2 fold change", "value": -0.162}]}
{"sequence": "RRIRIRPPRLPRPRPRPWLIPRP", "values": [{"measurement": "shrunken log2 fold change", "value": 0.0717}]}
{"sequence": "RRIRRRPPRLPRPRPRPWKVPRP", "values": [{"measurement": "shrunken log2 fold change", "value": 0.00548}]}
{"sequence": "RRIRFRPPRLPRPRPRPFFVPRP", "values": [{"measurement": "shrunken log2 fold change", "value": -0.161}]}
{"sequence": "RRIRKRPPRLPRPRPRPCREPRP", "values": [{"measurement": "shrunken log2 fold change", "value": 0.368}]}
{"sequence": "RRIRDRPPRLPRPRPRPYNQPRP", "values": [{"measurement": "shrunken log2 fold change", "value": -0.135}]}
{"sequence": "RRIRCRPPRLPRPRPRPAPMPRP", "values": [{"measurement": "shrunken log2 fold change", "value": 0.308}]}
{"sequence": "RRIRCRPPRLPRPRPRPLIAPRP", "values": [{"measurement": "shrunken log2 fold change", "value": -0.0852}]}
{"sequence": "RRIRLRPPRLPRPRPRPEMWPRP", "values": [{"measurement": "shrunken log2 fold change", "value": 0.204}]}
{"sequence": "RRIRNRPPRLPRPRPRPQWCPRP", "values": [{"measurement": "shrunken log2 fold change", "value": -0.0662}]}
{"sequence": "RRIRWRPPRLPRPRPRPRSKPRP", "values": [{"measurement": "shrunken log2 fold change", "value": 0.118}]}
{"sequence": "RRIRVRPPRLPRPRPRPEESPRP", "values": [{"measurement": "shrunken log2 fold change", "value": 0.246}]}
{"sequence": "RRIRWRPPRLPRPRPRPMMRPRP", "values": [{"measurement": "shrunken log2 fold change", "value": 1.08}]}
{"sequence": "RRIRFRPPRLPRPRPRPFRTPRP", "values": [{"measurement": "shrunken log2 fold change", "value": -0.444}]}
{"sequence": "RRIRYRPPRLPRPRPRPSSHPRP", "values": [{"measurement": "shrunken log2 fold change", "value": -2.24}]}
{"sequence": "RRIRLRPPRLPRPRPRPSDFPRP", "values": [{"measurement": "shrunken log2 fold change", "value": -0.131}]}
{"sequence": "RRIRWRPPRLPRPRPRPNKHPRP", "values": [{"measurement": "shrunken log2 fold change", "value": -0.281}]}
{"sequence": "RRIRERPPRLPRPRPRPCIFPRP", "values": [{"measurement": "shrunken log2 fold change", "value": -0.749}]}
{"sequence": "RRIRLRPPRLPRPRPRPDVWPRP", "values": [{"measurement": "shrunken log2 fold change", "value": 0.127}]}
{"sequence": "RRIRNRPPRLPRPRPRPSNVPRP", "values": [{"measurement": "shrunken log2 fold change", "value": -0.615}]}
{"sequence": "RRIRDRPPRLPRPRPRPNPKPRP", "values": [{"measurement": "shrunken log2 fold change", "value": 0.165}]}
{"sequence": "RRIRQRPPRLPRPRPRPYIVPRP", "values": [{"measurement": "shrunken log2 fold change", "value": 0.04}]}
{"sequence": "RRIRWRPPRLPRPRPRPDQRPRP", "values": [{"measurement": "shrunken log2 fold change", "value": 0.098}]}
{"sequence": "RRIRPRPPRLPRPRPRPQWMPRP", "values": [{"measurement": "shrunken log2 fold change", "value": 0.00643}]}
{"sequence": "RRIRARPPRLPRPRPRPGRLPRP", "values": [{"measurement": "shrunken log2 fold change", "value": 0.895}]}
{"sequence": "RRIRVRPPRLPRPRPRPCETPRP", "values": [{"measurement": "shrunken log2 fold change", "value": 0.0572}]}
{"sequence": "RRIRIRPPRLPRPRPRPELVPRP", "values": [{"measurement": "shrunken log2 fold change", "value": -0.105}]}
{"sequence": "RRIRPRPPRLPRPRPRPEIMPRP", "values": [{"measurement": "shrunken log2 fold change", "value": -0.0268}]}
{"sequence": "RRIRPRPPRLPRPRPRPAGKPRP", "values": [{"measurement": "shrunken log2 fold change", "value": -0.0291}]}
{"sequence": "RRIRCRPPRLPRPRPRPSQWPRP", "values": [{"measurement": "shrunken log2 fold change", "value": -0.337}]}
{"sequence": "RRIRVRPPRLPRPRPRPKCPPRP", "values": [{"measurement": "shrunken log2 fold change", "value": 0.0181}]}
{"sequence": "RRIRTRPPRLPRPRPRPFMKPRP", "values": [{"measurement": "shrunken log2 fold change", "value": -0.661}]}
{"sequence": "RRIRSRPPRLPRPRPRPNEQPRP", "values": [{"measurement": "shrunken log2 fold change", "value": 0.0903}]}
{"sequence": "RRIRLRPPRLPRPRPRPHHEPRP", "values": [{"measurement": "shrunken log2 fold change", "value": 0.0418}]}
{"sequence": "RRIRVRPPRLPRPRPRPSWRPRP", "values": [{"measurement": "shrunken log2 fold change", "value": -0.0696}]}
{"sequence": "RRIRSRPPRLPRPRPRPDMHPRP", "values": [{"measurement": "shrunken log2 fold change", "value": -0.118}]}
{"sequence": "RRIRHRPPRLPRPRPRPRGWPRP", "values": [{"measurement": "shrunken log2 fold change", "value": 0.629}]}
{"sequence": "RRIRNRPPRLPRPRPRPKHIPRP", "values": [{"measurement": "shrunken log2 fold change", "value": -0.438}]}
{"sequence": "RRIRTRPPRLPRPRPRPVPYPRP", "values": [{"measurement": "shrunken log2 fold change", "value": -0.0764}]}
{"sequence": "RRIRFRPPRLPRPRPRPEREPRP", "values": [{"measurement": "shrunken log2 fold change", "value": 0.292}]}
{"sequence": "RRIRMRPPRLPRPRPRPLPTPRP", "values": [{"measurement": "shrunken log2 fold change", "value": 1.36}]}
{"sequence": "RRIRPRPPRLPRPRPRPEPDPRP", "values": [{"measurement": "shrunken log2 fold change", "value": 0.537}]}
{"sequence": "RRIRRRPPRLPRPRPRPIFLPRP", "values": [{"measurement": "shrunken log2 fold change", "value": 0.0228}]}
{"sequence": "RRIRQRPPRLPRPRPRPKNSPRP", "values": [{"measurement": "shrunken log2 fold change", "value": -0.536}]}
{"sequence": "RRIRARPPRLPRPRPRPWNMPRP", "values": [{"measurement": "shrunken log2 fold change", "value": -0.046}]}
{"sequence": "RRIRCRPPRLPRPRPRPGIKPRP", "values": [{"measurement": "shrunken log2 fold change", "value": -0.876}]}
{"sequence": "RRIRWRPPRLPRPRPRPMSDPRP", "values": [{"measurement": "shrunken log2 fold change", "value": 0.0237}]}
{"sequence": "RRIRMRPPRLPRPRPRPAEEPRP", "values": [{"measurement": "shrunken log2 fold change", "value": 1.55}]}
